Molecular target: RQR8
Experiment: cell-based or functional assay

Chain of RQR8 (chain, as listed by the source limits assumed): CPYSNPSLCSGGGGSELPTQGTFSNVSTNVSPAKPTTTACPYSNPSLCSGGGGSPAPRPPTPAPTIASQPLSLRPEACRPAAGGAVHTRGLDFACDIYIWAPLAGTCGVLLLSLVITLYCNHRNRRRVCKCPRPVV

rituximab (antibody) showed a complement-dependent cytotoxicity (CDC): CAR+ cells eliminated, RTX 100 µg/ml with baby rabbit complement, 2 hours of 85%.
